Paper PMC7949044, “The cytoplasmic domain of the AAA+ protease FtsH is tilted with respect to the membrane to facilitate substrate entry” (The Journal of Biological Chemistry, 2020)

B1: AaFtsH hexamer (Aquifex aeolicus VF5) (protein)
chain: MNALKNFFIWAIIIGAAIVAFNLFEGKREFTTKVSLNEVVKLVEEGKVSYAEVRGNTAIIQTKDGQKLEVTLPPNTNLVDKMVEKGVRVEVANPEPPGGWLVNVFLSWLPILFFIGIWIFLLRQMSGGGNVNRAFNFGKSRAKVYIEEKPKVTFKDVAGIEEVKEEVKEIIEYLKDPVKFQKLGGRPPKGVLLYGEPGVGKTLLAKAIAGEAHVPFISVSGSDFVEMFVGVGAARVRDLFETAKKHAPCIIFIDEIDAVGRARGAIPVGGGHDEREQTLNQLLVEMDGFDTSDGIIVIAATNRPDILDPALLRPGRFDRQIFIPKPDVRGRYEILKVHARNKKLAKDVDLEFVARATPGFTGADLENLLNEAALLAARKGKEEITMEEIEEALDRITMGLERKGMTISPKEKEKIAIHEAGHALMGLVSDDDDKVHKISIIPRGMALGVTQQLPIEDKHIYDKKDLYNKILVLLGGRAAEEVFFGKDGITTGAENDLQRATDLAYRMVSMWGMSDKVGPIAIRRVANPFLGGMTTAVDTSPDLLREIDEEVKRIITEQYEKAKAIVEEYKEPLKAVVKKLLEKETITCEEFVEVFKLYGIELKDKCKKEELFDKDRKSEENKELKSEEVKEEVV
B2: full-length Aquifex aeolicus FtsH (enzyme, UniProt O67077 1-634, looked up)
chain: B1 chain
notes: the cited crystal structure PDB 4WW0 holds only the cytosolic domain, residues 141-608; The molecule is the protomer; In LMNG it is found as a hexamer (second SEC peak) and as a dodecamer of two hexamers in one LMNG micelle (first SEC peak); Before SEC it was incubated overnight at 60 °C with 20 mM ATP, 10 mM MgCl2 and 25 uM ZnCl2; also called AaFtsH; AaFtsH wildtype; source: E. coli, …
B3: AaFtsH dodecamer (Aquifex aeolicus VF5) (protein)
chain: B1 chain

Columns and labels:
[1] = molecular target: AaFtsH-Δ20 mutant (Aquifex aeolicus) (UniProt O67077); assay: SEC-MALS; Superose 6 Increase 10/300 GL, 20 mM Tris-HCl pH 8.0, 150 mM NaCl, 0.01% LMNG, room temperature; protein conjugate analysis; step: subunits to hexamer (second peak)
purified protein = substrate: Nc1ncnc2c1ncn2[C@@H]1O[C@H](COP(=O)(O)OP(=O)(O)OP(=O)(O)O)[C@@H](O)[C@H]1O; assay: purified protein; conditions: 50 mM Tris-HCl pH 8.0, 150 mM NaCl, 10 mM MgCl2, 60 °C, 0.25 μM AaFtsH (monomer concentration)
[2] = molecular target: the molecule itself; assay: SEC-MALS; Superose 6 Increase 10/300 GL, 20 mM Tris-HCl pH 8.0, 150 mM NaCl, 0.01% LMNG, room temperature; protein conjugate analysis; step: two hexamers to a dodecamer in one LMNG micelle (first peak)
[3] = molecular target: the molecule itself; assay: SEC-MALS; Superose 6 Increase 10/300 GL, 20 mM Tris-HCl pH 8.0, 150 mM NaCl, 0.01% LMNG, room temperature; protein conjugate analysis; step: subunits to hexamer (second peak)

| stoichiometry N [1] | Molecule | Km (purified protein) | kcat (purified protein) | stoichiometry N [2] | stoichiometry N [3] |
| --- | --- | --- | --- | --- | --- |
| 6 | AaFtsH-Δ20 mutant (from UniProt O67077 1-634) (enzyme) |  |  |  |  |
|  | B1 | 600 (95% CI: 480–754) μM | 1.05 s⁻¹ |  |  |
|  | B2 |  |  | ~12 | 6 |
|  | B3 | 518 (95% CI: 432–625) μM | 1.02 s⁻¹ |  |  |
